Target: Human recombinant p65 protein (SinoBiological 12054-H09E) (human) (UniProt Q04206)
Test: BLI; Forte-Bio Octet Red; anti-p65 Ab (5 μg/mL) captured on Protein A biosensors, 25 μg/mL recombinant p65 bound to it, ICP22 in solution at 62.5, 125, 250, 500 or 1000 nM; PBS

Sequence of UniProt Q04206 (Q04206 whole entry, stated change not applied): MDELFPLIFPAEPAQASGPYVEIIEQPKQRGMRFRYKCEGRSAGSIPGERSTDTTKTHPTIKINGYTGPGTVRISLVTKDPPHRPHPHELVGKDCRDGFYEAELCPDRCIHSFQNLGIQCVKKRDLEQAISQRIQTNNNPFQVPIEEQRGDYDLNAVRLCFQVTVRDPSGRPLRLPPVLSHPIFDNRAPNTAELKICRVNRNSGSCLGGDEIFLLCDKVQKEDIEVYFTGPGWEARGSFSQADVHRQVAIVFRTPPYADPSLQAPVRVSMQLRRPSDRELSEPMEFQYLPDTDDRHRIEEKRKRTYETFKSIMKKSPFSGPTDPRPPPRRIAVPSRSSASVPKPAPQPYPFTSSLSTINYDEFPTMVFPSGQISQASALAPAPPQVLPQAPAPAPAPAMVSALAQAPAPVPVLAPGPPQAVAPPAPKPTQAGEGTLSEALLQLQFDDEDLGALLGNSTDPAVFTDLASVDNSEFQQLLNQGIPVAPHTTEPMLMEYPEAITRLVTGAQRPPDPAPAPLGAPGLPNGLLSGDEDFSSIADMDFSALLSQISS

Substance: HA-tagged HSV-2 ICP22, purified (from UniProt P14379 1-197) (natural protein)
- Kd: 218 nM
